Test results published in patent US20200197536A1.

Biological target: Met (hepatocyte growth factor receptor) on Hep3B cells (human) (UniProt P08581)
Experiment: flow cytometry saturation binding of Alexa Fluor 647-labeled protocells (0.015 wt % MC40, about 6 peptides/particle) on cytochalasin D-treated Hep3B cells; non-specific binding measured with saturating unlabeled hepatocyte growth factor and subtracted

UniProt P08581, sequence (P08581 25-1390): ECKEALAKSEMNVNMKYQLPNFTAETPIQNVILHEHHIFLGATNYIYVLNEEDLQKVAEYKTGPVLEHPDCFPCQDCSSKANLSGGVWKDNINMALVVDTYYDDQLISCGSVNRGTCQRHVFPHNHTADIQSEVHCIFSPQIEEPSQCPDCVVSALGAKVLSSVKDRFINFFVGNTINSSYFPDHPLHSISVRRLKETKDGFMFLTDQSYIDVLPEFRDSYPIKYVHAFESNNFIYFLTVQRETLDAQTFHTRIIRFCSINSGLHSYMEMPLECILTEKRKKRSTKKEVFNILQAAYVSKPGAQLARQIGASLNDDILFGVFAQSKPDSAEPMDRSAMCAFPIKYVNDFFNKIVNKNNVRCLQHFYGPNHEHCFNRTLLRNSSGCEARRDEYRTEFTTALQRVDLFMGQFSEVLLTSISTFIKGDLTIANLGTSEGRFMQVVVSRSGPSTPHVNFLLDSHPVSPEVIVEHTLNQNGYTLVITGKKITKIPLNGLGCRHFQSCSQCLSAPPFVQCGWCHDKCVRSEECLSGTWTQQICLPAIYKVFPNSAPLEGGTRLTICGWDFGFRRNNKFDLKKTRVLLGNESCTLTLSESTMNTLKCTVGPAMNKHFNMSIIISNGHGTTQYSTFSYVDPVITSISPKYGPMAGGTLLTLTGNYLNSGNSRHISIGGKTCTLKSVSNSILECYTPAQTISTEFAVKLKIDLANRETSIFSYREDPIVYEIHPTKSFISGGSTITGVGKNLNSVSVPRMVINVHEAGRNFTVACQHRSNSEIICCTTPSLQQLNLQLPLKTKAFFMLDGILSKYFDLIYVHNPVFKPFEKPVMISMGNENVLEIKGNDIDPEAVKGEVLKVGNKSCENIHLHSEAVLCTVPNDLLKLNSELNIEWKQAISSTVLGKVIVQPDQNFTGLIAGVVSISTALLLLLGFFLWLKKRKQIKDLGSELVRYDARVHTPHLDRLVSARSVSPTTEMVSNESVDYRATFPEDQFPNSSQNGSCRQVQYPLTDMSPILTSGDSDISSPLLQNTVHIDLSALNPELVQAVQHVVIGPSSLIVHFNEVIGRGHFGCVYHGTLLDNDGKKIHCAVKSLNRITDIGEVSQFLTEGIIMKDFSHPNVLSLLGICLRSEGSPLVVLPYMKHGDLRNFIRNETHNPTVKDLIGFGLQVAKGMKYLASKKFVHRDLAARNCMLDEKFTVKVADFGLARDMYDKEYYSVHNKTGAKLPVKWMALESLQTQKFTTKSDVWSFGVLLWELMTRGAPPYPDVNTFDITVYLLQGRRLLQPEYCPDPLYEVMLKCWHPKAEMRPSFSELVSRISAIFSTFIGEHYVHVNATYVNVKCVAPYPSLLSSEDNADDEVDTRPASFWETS

## MC40-targeted protocells (mesoporous silica nanoparticle-supported lipid bilayer modified with 0.015 wt % MC40 targeting peptide)
  Kd: 1.05 nM
